Laboratory results reported in the supplement of paper PMC9732359.
± gives the uncertainty stated by the source.

Experiment: protein stability index of a GFP-peptide fusion (yeast GPS) (PSI 1-4); higher = more stable; sorted into four equal gates, so the index is relative within each strain
How it was run: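 Tiled yeast protein peptides of 17 residues were each joined downstream of GFP, on plasmids that also express Cherry. The pooled library was maintained in yeast, and mid-log cultures in leucine-free medium were sorted into four equal gates on the GFP/Cherry ratio. Plasmids from every gate were amplified by PCR and sequenced on Illumina, with barcodes linking reads to strains. The protein stability index of a peptide is its gate-number-weighted read frequency summed over the gates.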

| Sequence | protein stability index (doa10∆) | protein stability index (pdr5∆) | protein stability index (san1∆) | protein stability index (ubr1∆) |
| --- | --- | --- | --- | --- |
| STFRLNLSVTSPYNADF [RPO21] | 2.21 ± 0.05 | 2.34 ± 0.054 | 2.6 ± 0.075 | 2.93 ± 0.044 |
| PFTASQSNINTNAPLRT [YIL149C/MLP2] | 2.37 ± 0.12 | 2.49 ± 0.089 | 2.11 ± 0.075 | 2.08 ± 0.053 |
| FKHGPMSLINDAMVTRT [SMD2] | 2.9 ± 0.11 | 2.43 ± 0.09 | 2.76 ± 0.093 | 3.01 ± 0.085 |
| RPFDSFGKLLQAYQFLN [ITC1] | 1.44 ± 0.047 | 1.58 ± 0.058 | 1.48 ± 0.077 | 1.64 ± 0.053 |
| DEVDAIGGRRFSEGTSA [RPT4] | 2.72 ± 0.086 | 2.67 ± 0.083 | 2.48 ± 0.1 | 2.35 ± 0.09 |
| NVFVILMDKCLPKVRIR [DIS3] | 2.96 ± 0.088 | 1.87 ± 0.05 | 1.87 ± 0.07 | 1.65 ± 0.047 |
| NTQLHGPSATDPETTAT [RGR1] | 3.01 ± 0.094 | 2.89 ± 0.088 | 2.65 ± 0.073 | 2.81 ± 0.068 |
| ILSNVDLAMANSLRRVM [RPB3] | 2.75 ± 0.055 | 2.54 ± 0.047 | 2.66 ± 0.071 | 2.46 ± 0.037 |
| KKKGLDENTSGKISKPR [PRP28] | 3.5 ± 0.091 | 3.23 ± 0.14 | 3.52 ± 0.065 | 3.45 ± 0.099 |
| NAIIEANLGKYGILSID [RPL7A] | 2.87 ± 0.17 | 2.97 ± 0.14 | 2.84 ± 0.094 | 2.89 ± 0.15 |
| DKIPLNYAMTRNILHNT [SRB5] | 1.82 ± 0.057 | 2.34 ± 0.057 | 1.83 ± 0.081 | 1.93 ± 0.035 |
| QYYVTQHDKMVDKIFEK [SWI1] | 2.96 ± 0.1 | 2.42 ± 0.06 | 2.68 ± 0.068 | 2.84 ± 0.034 |
| WDLLQSGSQNISEFDSF [RPN12] | 3.38 ± 0.16 | 3.14 ± 0.09 | 3.05 ± 0.12 | 3.22 ± 0.067 |
| KNKKIEVYTKTIEVLDE [POP7] | 2.12 ± 0.11 | 2.78 ± 0.11 | 2.45 ± 0.15 | 2.61 ± 0.14 |
| VHLSNGYKMIPGAKPLQ [FAS1] | 1.74 ± 0.072 | 2.02 ± 0.076 | 1.8 ± 0.088 | 1.81 ± 0.05 |
| SKYYPGVIIKVEESGEH [SNU114] | 1.96 ± 0.061 | 2.08 ± 0.077 | 2.28 ± 0.08 | 2.42 ± 0.073 |
| LQDLISVYGLDDISRQV [ROX3] | 2.69 ± 0.077 | 2.88 ± 0.086 | 2.84 ± 0.12 | 3.21 ± 0.051 |
| GSGLLKLSEIILNINNS [SWI1] | 2.69 ± 0.089 | 2.69 ± 0.081 | 2.4 ± 0.098 | 2.85 ± 0.081 |
| PTVHNSTAAAPIAAPKK [PGD1] | 2.81 ± 0.065 | 3.08 ± 0.071 | 2.83 ± 0.052 | 3.072 ± 0.029 |
| IFTDAGRVYRPLFIVED [RPB2] | 2.16 ± 0.066 | 2.51 ± 0.08 | 2.06 ± 0.074 | 1.89 ± 0.033 |
| TVPNLPTTMVTNQKDTN [ISW2] | 1.29 ± 0.046 | 1.84 ± 0.053 | 1.51 ± 0.1 | 1.75 ± 0.051 |
| IEDDGIIESHLIQLQNI [CSN9] | 2.77 ± 0.1 | 3.17 ± 0.099 | 2.97 ± 0.075 | 2.76 ± 0.073 |
| LTYDRLEFATIRKGAND [PRE9] |  |  | 2.62 ± 0.24 |  |
| VLDSYTPSTNEPYARVS [FAS1] | 2.94 ± 0.054 | 2.76 ± 0.053 | 2.71 ± 0.066 | 3.01 ± 0.044 |
| TTNMNVNNCIWALKSSL [RGR1] | 2.26 ± 0.068 | 1.32 ± 0.065 | 1.36 ± 0.21 | 1.25 ± 0.046 |
| YQRKRLVTQHKAKYNTP [RPL5] | 3.21 ± 0.3 | 2.8 ± 0.2 |  |  |
| GSNGELFGGRHYLFNTF [SWP82] |  | 2.97 ± 0.29 |  |  |

| Sequence | protein stability index (doa10∆) | protein stability index (pdr5∆) | protein stability index (san1∆) | protein stability index (ubr1∆) |
| --- | --- | --- | --- | --- |
| FKDRFKDEPVQNDILQE [FAS2] | 3.35 ± 0.13 | 3.03 ± 0.15 | 3.23 ± 0.072 | 3.46 ± 0.092 |
| DYTLQDIICEDSTLILE [RPB2] | 2.83 ± 0.082 | 2.64 ± 0.078 | 2.11 ± 0.11 | 2.15 ± 0.072 |
| EGDGAKAAISFGAKPEE [YJL041W/NSP1] | 3.21 ± 0.1 | 3 ± 0.087 | 3.43 ± 0.082 | 3.43 ± 0.053 |
| FIKVVNYNHLLPTRYTL [RPL27A] | 2.34 ± 0.06 | 2.25 ± 0.076 | 2.07 ± 0.098 | 2.18 ± 0.067 |
| RQNRRPELGDKFSSRHG [RET1] |  | 3.4 ± 0.3 |  | 2.63 ± 0.21 |
| ERVIVVTGFAEVGPWGS [FAS2] | 1.16 ± 0.085 | 1.36 ± 0.083 | 2.03 ± 0.11 | 1.47 ± 0.074 |
| EKNDQNNDDDDNSVEQG [MCD1] |  | 3.15 ± 0.22 |  |  |
| NNEMKSLQRSKSSFVKE [SMC1] |  | 3.25 ± 0.13 | 3.03 ± 0.11 | 3.28 ± 0.073 |
| QEGMNECPGHFGHIDLA [RPO21] | 3.27 ± 0.21 | 3.25 ± 0.098 | 3.33 ± 0.074 | 3.29 ± 0.09 |
| ALREMRKSDQQDVLKGS [POP1] | 3.36 ± 0.17 | 3.56 ± 0.16 | 3.43 ± 0.14 | 3.22 ± 0.11 |
| KNDNGGKMNNEVSTSTS [SWI3] | 3.29 ± 0.08 | 3.14 ± 0.1 | 3.06 ± 0.053 | 2.65 ± 0.075 |
| TQTVSGTPPMLHQRTHK [DSN1] | 2.97 ± 0.12 | 3.11 ± 0.097 | 2.89 ± 0.16 | 2.98 ± 0.088 |
| GEGSTVNASVDVDQHGN [SWI3] |  | 3.47 ± 0.17 | 2.87 ± 0.29 | 3.35 ± 0.19 |
| DITGIRDVSDDVFDTLA [GRR1] | 3.02 ± 0.12 | 3.04 ± 0.07 | 2.95 ± 0.075 | 2.97 ± 0.067 |
| HIKFSAGTEANAVSFDT [SRB4] | 1.98 ± 0.068 | 2.16 ± 0.055 | 2.66 ± 0.052 | 2.21 ± 0.04 |
| NPPYSQCIVYPNCLFIL [SOH1] | 1.76 ± 0.038 | 2.06 ± 0.044 | 1.86 ± 0.06 | 1.86 ± 0.035 |
| PVKLDENSANSTVASAL [SIR4] | 2.9 ± 0.13 | 3.09 ± 0.081 | 2.76 ± 0.09 | 2.9 ± 0.074 |
| YAVAEQCPVKSAEDQLY [QCR2] | 3.22 ± 0.13 |  | 3.15 ± 0.14 | 3.34 ± 0.21 |
| LLKEEKIIELMNKIFTI [YML103C/NUP188] | 2.81 ± 0.088 | 1.57 ± 0.097 | 1.26 ± 0.15 | 1.79 ± 0.25 |
| GTPLLEVRGQVPVIESA [SNU114] | 1.62 ± 0.046 | 1.88 ± 0.052 | 2.06 ± 0.093 | 1.95 ± 0.048 |
| ILTTAVGLVSPSFMLKH [RPN1] | 1.96 ± 0.16 | 1.93 ± 0.12 | 1.3 ± 0.13 | 1.52 ± 0.077 |
| VKVHMDSETSDPNEVEI [DIS3] | 3.29 ± 0.089 | 3.5 ± 0.086 | 3.5 ± 0.077 | 3.52 ± 0.088 |
| DPLRIAMKELAEKKIPL [RPO26] |  | 3.26 ± 0.18 |  |  |
| NKVHETSSKSSSLSAII [YDL088C/ASM4] | 2.67 ± 0.044 | 2.83 ± 0.053 | 2.81 ± 0.054 | 2.8 ± 0.035 |
| SLYIYYLIKLLGFEVKD [SIR2] | 2.32 ± 0.12 | 2.13 ± 0.13 | 2.31 ± 0.079 | 2.27 ± 0.15 |
| RKRPVPKGATYGKPTNQ [RPL15A] |  | 3.29 ± 0.19 | 3.58 ± 0.19 | 3.45 ± 0.14 |
